Results as given in article PMC7954794 (2021).

B1: S. cerevisiae Abp1 (full length; SH3 domain 535-592 mutated) / Hua2 (parent complex)
chain 1: MALEPIDYTTHSREIDAEYLKIVRGSDPDTTWLIISPNAKKEYEPESTGSSFHDFLQLFDETKVQYGLARVSPPGSDVEKIIIIGWCPDSAPLKTRASFAANFAAVANNLFKGYHVQVTARDEDDLDENELLMKISNAAGARYSIQTSSKQQGKASTPPVKKSFTPSKSPAPVSKKEPVKTPSPAPAAKISSRVNDNNDDDDWNEPELKERDFDQAPLKPNQSSYKPIGKIDLQKVIAEEKAKEDPRLVQKPTAAGSKIDPSSDIANLKNESKLKRDSEFNSFLGTTKPPSMTESSLKNDDDKVIKGFRNEKSPAQLWAERKAKQNSGNAETKAEAPKPEVPEDEPEGEPDVKDLKSKFEGLAASEKEEEEMENKFAPPPKKSEPTIISPKPFSKPQEPVKAEEAEQPKTDYKKIGNPLPGMHIEADNEEEPEENDDDWDDDEDEAAQPPLPSRNVASGAPVQKEEPEQEEIAPSLPSRNSIPAPKQEEAPEQAPEEEIEEEAEEAAPQLPSRSSAAPPPPPRRATPEKKPKENPWATAEYDYDAAEDNELTFVENDKIINIEFVDDDWWLGELEKDGSKGLFPSNYVSLGN
chain 2: MQQTKFGKMYLDHDSVVEYSEDEIVEADRITLGYKKRLSMIENQMRHLLEDFSLDVQQIEPILADLQKYYDAFLQLLQKRNKSLQCKRSTHQPVPSPMNSQTSTNAKVNLSGKLMKFQLNSVQKFDEENILRILQNKIEFEHYFQIDKGKKQKVLLLAVYQCLNGPTRLHKVLNIEGIIHNNSIRTILGKQVSSSKWTVFLYDVKLVLLAHRQDVPNLETSKMIVRYGDLFPCALYFKDHTAY

Variants of: B1
Assay: DHFR protein-fragment complementation in yeast (Abp1-DHFR F[1,2] x partner-DHFR F[3]), deep mutational scanning, second methotrexate selection vs reference; S. cerevisiae, DHFR-PCA selection in liquid with methotrexate at 30 C, two 72 h selections (the score uses the second); reference = the pre-selection culture

| Variant | screen value |
| --- | --- |
| chain 1 MALEPIDYTTHSREIDAEYLKIVRGSDPDTTWLIISPNAKKEYEPESTGSSFHDFLQLFDETKVQYGLARVSPPGSDVEKIIIIGWCPDSAPLKTRASFAANFAAVANNLFKGYHVQVTARDEDDLDENELLMKISNAAGARYSIQTSSKQQGKASTPPVKKSFTPSKSPAPVSKKEPVKTPSPAPAAKISSRVNDNNDDDDWNEPELKERDFDQAPLKPNQSSYKPIGKIDLQKVIAEEKAKEDPRLVQKPTAAGSKIDPSSDIANLKNESKLKRDSEFNSFLGTTKPPSMTESSLKNDDDKVIKGFRNEKSPAQLWAERKAKQNSGNAETKAEAPKPEVPEDEPEGEPDVKDLKSKFEGLAASEKEEEEMENKFAPPPKKSEPTIISPKPFSKPQEPVKAEEAEQPKTDYKKIGNPLPGMHIEADNEEEPEENDDDWDDDEDEAAQPPLPSRNVASGAPVQKEEPEQEEIAPSLPSRNSIPAPKQEEAPEQAPEEEIEEEAEEAAPQLPSRSSAAPPPPPRRATPEKKPKENPWATAEYSYDAAEDNELTFVENDKIINIEFVDDDWWLGELEKDGSKGLFPSNYVSLGN [chain 1 D542S] | 0.456 DMS score: mean over two replicates of log2(f_test/f_ref + 0.5)/ln 2, minus the synonymous-codon median (not a log2 … |
| chain 1 MALEPIDYTTHSREIDAEYLKIVRGSDPDTTWLIISPNAKKEYEPESTGSSFHDFLQLFDETKVQYGLARVSPPGSDVEKIIIIGWCPDSAPLKTRASFAANFAAVANNLFKGYHVQVTARDEDDLDENELLMKISNAAGARYSIQTSSKQQGKASTPPVKKSFTPSKSPAPVSKKEPVKTPSPAPAAKISSRVNDNNDDDDWNEPELKERDFDQAPLKPNQSSYKPIGKIDLQKVIAEEKAKEDPRLVQKPTAAGSKIDPSSDIANLKNESKLKRDSEFNSFLGTTKPPSMTESSLKNDDDKVIKGFRNEKSPAQLWAERKAKQNSGNAETKAEAPKPEVPEDEPEGEPDVKDLKSKFEGLAASEKEEEEMENKFAPPPKKSEPTIISPKPFSKPQEPVKAEEAEQPKTDYKKIGNPLPGMHIEADNEEEPEENDDDWDDDEDEAAQPPLPSRNVASGAPVQKEEPEQEEIAPSLPSRNSIPAPKQEEAPEQAPEEEIEEEAEEAAPQLPSRSSAAPPPPPRRATPEKKPKENPWATAEYDYLAAEDNELTFVENDKIINIEFVDDDWWLGELEKDGSKGLFPSNYVSLGN [chain 1 D544L] | 0.763 DMS score: mean over two replicates of log2(f_test/f_ref + 0.5)/ln 2, minus the synonymous-codon median (not a log2 … |

Other lines, results leading:

| screen value | Variant |
| --- | --- |
| -0.156 DMS score: mean over two replicates of log2(f_test/f_ref + 0.5)/ln 2, minus the synonymous-codon median (not a log2 … | chain 1 MALEPIDYTTHSREIDAEYLKIVRGSDPDTTWLIISPNAKKEYEPESTGSSFHDFLQLFDETKVQYGLARVSPPGSDVEKIIIIGWCPDSAPLKTRASFAANFAAVANNLFKGYHVQVTARDEDDLDENELLMKISNAAGARYSIQTSSKQQGKASTPPVKKSFTPSKSPAPVSKKEPVKTPSPAPAAKISSRVNDNNDDDDWNEPELKERDFDQAPLKPNQSSYKPIGKIDLQKVIAEEKAKEDPRLVQKPTAAGSKIDPSSDIANLKNESKLKRDSEFNSFLGTTKPPSMTESSLKNDDDKVIKGFRNEKSPAQLWAERKAKQNSGNAETKAEAPKPEVPEDEPEGEPDVKDLKSKFEGLAASEKEEEEMENKFAPPPKKSEPTIISPKPFSKPQEPVKAEEAEQPKTDYKKIGNPLPGMHIEADNEEEPEENDDDWDDDEDEAAQPPLPSRNVASGAPVQKEEPEQEEIAPSLPSRNSIPAPKQEEAPEQAPEEEIEEEAEEAAPQLPSRSSAAPPPPPRRATPEKKPKENPWATAEYDYDAAEDNELTFVENDKIINIEFDDDDWWLGELEKDGSKGLFPSNYVSLGN [chain 1 V565D] |
| 0.106 DMS score: mean over two replicates of log2(f_test/f_ref + 0.5)/ln 2, minus the synonymous-codon median (not a log2 … | chain 1 MALEPIDYTTHSREIDAEYLKIVRGSDPDTTWLIISPNAKKEYEPESTGSSFHDFLQLFDETKVQYGLARVSPPGSDVEKIIIIGWCPDSAPLKTRASFAANFAAVANNLFKGYHVQVTARDEDDLDENELLMKISNAAGARYSIQTSSKQQGKASTPPVKKSFTPSKSPAPVSKKEPVKTPSPAPAAKISSRVNDNNDDDDWNEPELKERDFDQAPLKPNQSSYKPIGKIDLQKVIAEEKAKEDPRLVQKPTAAGSKIDPSSDIANLKNESKLKRDSEFNSFLGTTKPPSMTESSLKNDDDKVIKGFRNEKSPAQLWAERKAKQNSGNAETKAEAPKPEVPEDEPEGEPDVKDLKSKFEGLAASEKEEEEMENKFAPPPKKSEPTIISPKPFSKPQEPVKAEEAEQPKTDYKKIGNPLPGMHIEADNEEEPEENDDDWDDDEDEAAQPPLPSRNVASGAPVQKEEPEQEEIAPSLPSRNSIPAPKQEEAPEQAPEEEIEEEAEEAAPQLPSRSSAAPPPPPRRATPEKKPKENPWATAEYDYDAAEDHELTFVENDKIINIEFVDDDWWLGELEKDGSKGLFPSNYVSLGN [chain 1 N549H] |
| 0.019 DMS score: mean over two replicates of log2(f_test/f_ref + 0.5)/ln 2, minus the synonymous-codon median (not a log2 … | chain 1 MALEPIDYTTHSREIDAEYLKIVRGSDPDTTWLIISPNAKKEYEPESTGSSFHDFLQLFDETKVQYGLARVSPPGSDVEKIIIIGWCPDSAPLKTRASFAANFAAVANNLFKGYHVQVTARDEDDLDENELLMKISNAAGARYSIQTSSKQQGKASTPPVKKSFTPSKSPAPVSKKEPVKTPSPAPAAKISSRVNDNNDDDDWNEPELKERDFDQAPLKPNQSSYKPIGKIDLQKVIAEEKAKEDPRLVQKPTAAGSKIDPSSDIANLKNESKLKRDSEFNSFLGTTKPPSMTESSLKNDDDKVIKGFRNEKSPAQLWAERKAKQNSGNAETKAEAPKPEVPEDEPEGEPDVKDLKSKFEGLAASEKEEEEMENKFAPPPKKSEPTIISPKPFSKPQEPVKAEEAEQPKTDYKKIGNPLPGMHIEADNEEEPEENDDDWDDDEDEAAQPPLPSRNVASGAPVQKEEPEQEEIAPSLPSRNSIPAPKQEEAPEQAPEEEIEEEAEEAAPQLPSRSSAAPPPPPRRATPEKKPKENPWATAEYDYDAAEDNELTFVENDKIINIEFVDDDWWLGELEKDGSKGLFPSNYVSLGM [chain 1 N592M] |
